From the DeepSol protein solubility set

Experiment: soluble on expression in E. coli; label from the status in PepcDB or PDB records

| Sequence | soluble on expression in E. coli |
| --- | --- |
| MSLYKVLALDLDGTVLSDDHTIHPQVKDAIRAAQQHCHVLIVTGRHHTAARPYYDELGLTTPIICCNGTYVYDYASETVLEHNAIDKQDALTFIDLAQEFQLKLVMYIKDAMTYSQRSPIAYMQALEKWAQAASLTHPPQIYAIDSFHQTARDSEFVWKFVVEGLPSSVERLLEHPWVNAHFNGERSWSNRIDFAAKGNSKGLRLAQYVAQLGYAANHVMAIGDNHNDISMLRYAGHGVAMANADDTVKSYARSLCSTDNNHAGLAQLIREHIQGEGHHHHHH | soluble |
| GEDFFFVVMRDISSKKILEREFSMNEQLFKDLFDRAVDGIVLFDKDGGFIDANLSFCKSFEINHNELSHLSLYEFIDSGSRKDFDNIWKALNRKGKAKGELPVKLRSGVQKLFEFTITSNII | not soluble |
| MGSDKIHHHHHHMNQIIPTSANGCIPNVYFMGRWTTQTVESKPAMYTTNLGAQILFEVQNADYFTLEAVINPLSAPQTLSIYIDDELHLTPLTRSKNDFKLSSNQSHIVRIYFTGNTDQDEIWLGNDGLTIKDITIASGTLAAIKPAGPLVAFIGDSITAGCWVRSKAPSIGYGADLNYAAQLSRALDWEDYRIAYSAAGIIRYGTGGVPPAGKFVKYVNFSVKAPRINPDLVLINLGTNDARYEDDVFEMYFVWFINEVKKQFPHARIIIITPFNQAHSHVIKNVAKALKIELIPTLDWVIETNDEVHPNVEGSKAISDHLVAWFTEPQNRLQSE | not soluble |
| MTLPQTMKAAVVHAYGAPLRIEEVKVPLPGPGQVLVKIEASGVCHTDLHAAEGDWPVKPPLPFIPGHEGVGYVAAVGSGVTRVKEGDRVGIPWLYTACGCCEHCLTGWETLCESQQNTGYSVNGGYAEYVLADPNYVGILPKNVEFAEIAPILCAGVTVYKGLKQTNARPGQWVAISGIGGLGHVAVQYARAMGLHVAAIDIDDAKLELARKLGASLTVNARQEDPVEAIQRDIGGAHGVLVTAVSNSAFGQAIGMARRGGTIALVGLPPGDFPTPIFDVVLKGLHIAGSIVGTRADLQEALDFAGEGLVKATIHPGKLDDINQILDQMRAGQIEGRIVLEM | soluble |
| MGSDKIHHHHHHMAVVCRRITASSRTYSLSALTRCLQEEAAAIAVAAERLSSSQVEKALVLLERCSDQRAKLVITGVGKSGIVARKIAATFSSIGLMALYLNPLDAMHGDLGVVAQEDVCLLLSNSGETAELLEVLPHLKRRGTARIALVGKPDSSLARGSDVVLEASVDREVCPLNLAPTASTAVAMAIGDALAAIWMERRNISPADFAFNHPAGSLGKQLTLTASDLMVPVEKVQPLQPNTSLQEVICKLTQDGIGSGWVEDPSTAGLLLGLITDGDLRRALRDHSAENWASLSAAELMTADPITVDADLLAVEAIKQMECNRRKPISVLPVVGPDSSGNLLLGLLRLHDLIQAGLT | not soluble |
| MNIPQLTALCLRYHGVLLDASEEVVHVAVVDAPSHELLDALHFATTKRIEITCWTRQQMEGHASRTQQTLPVAVQEKHQPKAELLTRTLQSALEQRASDIHIEPADNAYRIRLRIDGVLHPLPDVSPDAGVALTARLKVLGNLDIAEHRLPQDGQFTVELAGNAVSFRIATLPCRGGEKVVLRLLQQVGQALDVNTLGMQPLQLADFAHALQQPQGLVLVTGPTGSGKTVTLYSALQKLNTADINICSVEDPVEIPIAGLNQTQIHPRAGLTFQGVLRALLRQDPDVIMIGEIRDGETAEIAIKAAQTGHLVLSTLHTNSTCETLVRLQQMGVARWMLSSALTLVIAQRLVRKLCPHCRRQQGEPIHIPDNVWPSPLPHWQAPGCVHCYHGFYGRTALFEVLPITPVIRQLISANTDVESLETHARQAGMRTLFENGCLAVEQGLTTFEELIRVLGMPHGE | soluble |
| MGSDKIHHHHHHMAVQAKQCKAVLLCGYYGEHNLGDDALLQVLLEELPSSLQPWITANDSNVIKGLAPKAQVINRRSLLESIRALFQVQGLILGGGSLLQDSTSFKSLIYYLILIVIAQQRGVPVLLWGQGLGPFRYRLSRWMVRRVLRRVQAISWRDPDSFQLAEQWCLPSPMLMAPDPVWQLPSRSWEGGQAVVLCWRSTSMLDRFGWQHLLQALEMILTDIDAPVHWLAFHQRQDEELFRKLDRQGLISSSLRSRSHSFAFDSLTEVMNQFTMARLVLPMRLHALILAQLAGSPTVALSYDPKVSSAALMANVPFTDLQSLPDIRLLAGLWGQVLDVPPDLGKIEAIRKHASQHSKIIDKVFN | not soluble |
| MSLSSKRDIEANTDLNSITYIPTFPEPFERDNSHTTASFVSIQIRLLVASVTEENFLDTEHQIYYLLQRGSFSVYISYWKLLIQLFVNEFEAQQQKRDLNLPFRFDFSNLVHRLLYNLAQELITRTPDTIEKVKELALPLSGKYPIRPLFLSFLNKDNESDSAIIEALNPEVHPIFTTLKDLHRTNMSVSNITQNLFAVENKPNFLTMLSEFLKPLQGETLNDWIALILSEILAPGSQTSNQPSQPWIVQVPNVDVREVIEATEMGTKVNGIIKSLGTNNVNWNRVFNLMSTKFFLNKPVNATLSSLNYLFCILNSGPLVDQFFACDWSLYFKLRLSFLMYQWNYNSECLDLSSLPNIKKINKSIPLTKKSQLSLISVGKLNIELFLSRDEISKNPLFSSFHASFSEAYNNVPEYLAAVLISESKYFSLLVDNKSIIDELLISLVIKTYENNVIAFKELLKLVSKQKVIEVSRGIIASQNAQTINLVQALHDLGILDEVFEKLPIRDSLKLSPTAMHLGYLKFSEYIERNITLKTFVPTLDFIEAQTNIDELDPALKSVKLLNLHSLHSLIYRTANLKLSADERVALNNVIFKALISFPRLINYGYGHDDAIVANGDHAPIPQDVEKKMQTYLQKMYNKEMAIKDIVDILRKLRDSDDSNDQDIFCCIIHAVIAETTFFKEYPLEALATTSVLFGSMILFDLLRGFVLDVAFQIIYTFASESPDSKMFKFAVQALYAFRMRLNEYSPFCKRLLDEIPGLQTQPQIQQILTESAANPNVSEGHHHHHH | soluble |
| MSKGHSLQDPYLNTLRKERVPVSIYLVNGIKLQGQIESFDQFVILLKNTVSQMVYKHAISTVVPSRPVRLPSGDQPAEPGNA | soluble |
| MGSDKIHHHHHHMDELLEKAKKVREAWDVLRNATTREKNKAIKKIAEKLDERRKEILEANRIDVEKARERGVKESLVDRLALNDKRIDEMIKACETVIGLKDPVGEVIDSWVREDGLRIARVRVPIGPIGIIYESRPNVTVETTILALKSGNTILLRGGSDALNSNKAIVSAIREALKETEIPESSVEFIENTDRSLVLEMIRLREYLSLVIPRGGYGLISFVRDNATVPVLETGVGNCHIFVDESADLKKAVPVIINAKTQRPGTCNAAEKLLVHEKIAKEFLPVIVEELRKHGVEVRGCEKTREIVPDVVPATEDDWPTEYLDLIIAIKVVKNVDEAIEHIKKYSTGHSESILTENYSNAKKFVSEIDAAAVYVNASTRFTDGGQFGFGAEIGISTQRFHARGPVGLRELTTYKFVVLGEYHVRE | soluble |
| MSATSVDTQRTKGQDNKVQNGSLHQKDTVHDNDFEPYLTGQSNQSNSYPSMSDPYLSSYYPPSIGFPYSLNEAPWSTAGDPPIPYLTTYGQLSNGDHHFMHDAVFGQPGGLGNNIYQHRFNFFPENPAFSAWGTSGSQGQQTQSSAYGSSYTYPPSSLGGTVVDGQPGFHSDTLSKAPGMNSLEQGMVGLKIGDVSSSAVKTVGSVVSSVALTGVLSGNGGTNVNMPVSKPTSWAAIASKPAKPQPKMKTKSGPVMGGGLPPPPIKHNMDIGTWDNKGPVPKAPVPQQAPSPQAAPQPQQVAQPLPAQPPALAQPQYQSPQQPPQTRWVAPRNRNAAFGQSGGAGSDSNSPGNVQPNSAPSVESHPVLEKLKAAHSYNPKEFEWNLKSGRVFIIKSYSEDDIHRSIKYSIWCSTEHGNKRLDSAFRCMSSKGPVYLLFSVNGSGHFCGVAEMKSPVDYGTSAGVWSQDKWKGKFDVQWIFVKDVPNNQLRHIRLENNDNKPVTNSRDTQEVPLEKAKQVLKIISSYKHTTSIFDDFAHYEKRQEEEEVVRKERQSRNKQ | soluble |
| MMTSNSYWQRLKVAFQYVMPQIYLTQIAGWFAKQKWGKITHFVIKAFAKKYNIDMSIAQKEQFSDYASFNEFFIRPLKENARPINQNPTALCLPADGRISECGHIDDNLLLQAKGHFFSLEDLLAEDKELVETFKNGEFVTTYLSPRDYHRVHMPCDATLRKMIYVPGDLFSVNPFLAQHVPNLFARNERVICVFDTEFGTMVQILVGATITASIGTTWAGVINPPRHNEVKTWTYEGESAVKLLKGQEMGWFQLGSTVINLFQANQVRLADHLSVNEPVRMGEILAYKKLEHHHHHH | not soluble |
| MSDGERVLKIPVEYFEDGWKKGEAVITKDAISFAGKTIRFKEIQDLERLKHEGRDAIRIKKDADYFIDFGSRQAQIFRYLAFNLKSDRFAVYFLSPATRGGVVVSDSKWEKGYLSITDEALWFLSSSKQIRISIQNLGSVEKDIRTVGKKQRVVLVVTHVENGEVITSFVLCPETTMDMLQEYIQNFIEKSKPKEKLSEVEEQILTMVYTGVDSVSVESILGVTTEELNKMYDRLVNLGLARVVKIRKEIELTPRGVALVSEIMKKAAR | not soluble |
| MSLIDLKQYEFWFLVGSQYLYGLETLKKVEQQASKIVDSLNDDPIFPSKIVLKPVLKSSSEITEIFEKANADPKCAGVIVWMHTFSPSKMWIRGLSINKKPLLHLHTQYNREIPWDTIDMDYMNLNQSAHGDREHGFIHARMRLPRKVVVGHWEEKEVREKIAKWMRVACAIQDGRMGQIVRFGDNMREVASTEGDKVEAQIKLGWSINTWGVGELAERVKAVPEREVEELLKEYREKYIMPEDEYSLKAIREQAKIEIALREFLKEKNAVGFTTTFEDLHDLPQLPGLAVQRLMEEGYGFGAEGDWKAAGLVRAIKVMGTSLPGGTSFMEDYTYHLTPGNELVLGAHMLEVCPTIAKEKPRIEVHPLSIGGKADPARLVFDGQEGPAVNASIVDMGNRFRLVVNKVLSVPIERKMPKLPTARVLWKPLPDFKRATTAWILAGGSHHTAFSTAIDVEYLIDWAEALEIEYVVIDENLDLEDFKKELRWNELYWGLLKREGHHHHHH | soluble |
| ARLGNWEFDLETNVFTCSEESCRIFGIRDHRQGKSHRALMRRVHPEDRVTVKKAIFQAFRTGVGYCMDHRIVLDDGVERIVSQHAELLSADDGRTSRLVGTVHDIT | not soluble |
| GPGSMPSAPTSVTAVVQLPPLIDCHVHFREPGLEHKADIASESTAAYYGGITVACDMPNTSPPTQSVAALADKVARAKATAHAHCQLFFFFGATAEAHLQELEELWTNPAHAELKTHCCGLKLYLDNSTGNMKSSLSVVEKSFEMCGRLQIVLVAHCEQSEINDAAAAQHPYDGPASHSLRRPADSEAASVQSAIALARQCRTPLHLAHVSTAQSLDLIREARAADPTLQLTCEVTPHHLFLTTSDYSCCGARVKVNPPVRPPQHHEALWAGLLDGTVDCVGTDHAPHTIAEKDHCDAAAQPPSGMPAIEVVVPLLLTVVAGQWPHPTAAKPSALAAAEHQGRTLTLDDVVRVLHTNPNRIFNLRQPDAPHRSFDLACEWTVRGEELHSKCQWTPYEGWRLRGRVLANE | soluble |
| MDEVNVIARITGVSRVRTFERDGREGRFISLDIMDATGSTTYTLWNNDVNLVEELGLKEGDAVKILWAQPRRRDDKVTLTHTSLTRVVPGLEHHHHHH | not soluble |
| MTYTTRQIGAKNTLEYKVYIEKDGKPVSAFHDIPLYADKENNIFNMVVEIPRWTNAKLEITKEETLNPIIQDTKKGKLKFVRNCFPHHGYIHNYGAFPQTWEDPNVSHPETKAVGDNDPIDVLEIGETIAYTGQVKQVKALGIMALLDEGETDWKVIAIDINDPLAPKLNDIEDVEKYFPGLLRATNEWFRIYKIPDGKPENQFAFSGEAKNKKYALDIIKETHDSWKQLIAGKSSDSKGIDLTNVTLPDTPTYSKAASDAIPPASLKADAPIDKSIDKWFFISGSV | soluble |
| MEQLTKNQRKKRDEIEAGKSYCSRRFGGATCDDKSAQIYARFDKNDWRIQPAEFYRFHDAEVNTFGYF | soluble |
